Assay results published in publication PMC6202052, “The ectodomains determine ligand function in vivo and selectivity of DLL1 and DLL4 toward NOTCH1 and NOTCH2 in vitro” (eLife, 2018).
Blank lines part the entries; values can stand above or below the binder they belong to.

What was measured:
[1] = biological target: T1, biotinylated human N1 ectodomain fragment containing EGF repeats 6–15 (human, UniProt P46531 216-604, biotin on the Avi tag (BirA co-expression)); assay: BLI; BLItz instrument; biotinylated Notch1 fragment loaded on streptavidin biosensors, dipped into ligand samples of varying concentration until equilibrium; HBS-P buffer with 0.005% surfactant P20 and 5 mM CaCl2; equilibrium curves fitted with a one site specific binding model; settings: both partners purified
T1 construct: human NOTCH1, EGF repeats 6–15 (amino acids 216–604); also called hN1; N1 fragment; source: Expi293F, transiently transfected (co-transfected with BirA and POFUT1), purified from the medium (Ni-NTA, Superdex 200); not shown: Avi (biotinylation) tag, C-terminal, kept

N2(1–15)-Fc = biological target: T2, N2(1–15)-Fc (human, UniProt Q04721 26-605); assay: BLI; BLItz instrument; N2(1–15)-Fc captured on protein A biosensors, ligand samples of varying concentration; HBS-P buffer with 0.005% surfactant P20 and 5 mM CaCl2; equilibrium curves fitted with a one site specific binding model; settings: both partners purified
T2 construct: human NOTCH2, printed as N2(1–15); no catalogue number is printed; Captured on protein A sensor tips by its Fc; also called human N2; human NOTCH2; source: bought: R and D systems, used without further purification
T2 sequence (looked up): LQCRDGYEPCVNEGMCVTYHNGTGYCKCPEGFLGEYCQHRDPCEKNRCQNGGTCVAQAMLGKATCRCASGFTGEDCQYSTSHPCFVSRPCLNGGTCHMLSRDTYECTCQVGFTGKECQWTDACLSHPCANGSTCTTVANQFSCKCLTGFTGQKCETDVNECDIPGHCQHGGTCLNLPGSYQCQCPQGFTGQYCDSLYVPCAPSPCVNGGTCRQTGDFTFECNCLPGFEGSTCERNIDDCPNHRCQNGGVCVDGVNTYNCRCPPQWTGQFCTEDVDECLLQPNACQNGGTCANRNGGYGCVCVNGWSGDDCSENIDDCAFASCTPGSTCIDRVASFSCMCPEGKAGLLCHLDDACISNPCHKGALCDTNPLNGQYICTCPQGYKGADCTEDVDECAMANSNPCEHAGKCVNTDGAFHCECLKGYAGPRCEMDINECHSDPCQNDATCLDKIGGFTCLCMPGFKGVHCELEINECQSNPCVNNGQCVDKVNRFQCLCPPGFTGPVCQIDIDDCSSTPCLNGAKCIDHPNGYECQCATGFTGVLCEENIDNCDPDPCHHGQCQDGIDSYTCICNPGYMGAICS

Kd [1]: 0.43 µM
B1: mD4N-E5 (mouse DLL4 from the N-terminus up to and including EGF5) (domain or fragment, UniProt Q9JI71 27-401, looked up)
chain: GSGIFQLRLQEFVNQRGMLANGQSCEPGCRTFFRICLKHFQATFSEGPCTFGNVSTPVLGTNSFVVRDKNSGSGRNPLQLPFNFTWPGTFSLNIQAWHTPGDDLRPETSPGNSLISQIIIQGSLAVGKIWRTDEQNDTLTRLSYSYRVICSDNYYGESCSRLCKKRDDHFGHYECQPDGSLSCLPGWTGKYCDQPICLSGCHEQNGYCSKPDECICRPGWQGRLCNECIPHNGCRHGTCSIPWQCACDEGWGGLFCDQDLNYCTHHSPCKNGSTCSNSGPKGYTCTCLPGYTGEHCELGLSKCASNPCRNGGSCKDQENSYHCLCPPGYYGQHCEHSTLTCADSPCFNGGSCRERNQGSSYACECPPNFTGSNCE
notes: mouse DLL4, N-terminus up to and including EGF5; also called DLL4 (from the N-terminus through EGF-repeat 5); pLexM-D4N-E5-Avi-His; source: Expi293F, transiently transfected, purified from the medium (Ni-NTA, Superdex 200)

Kd [1]: 1.56 µM
B2: mDLL1 fragment (mouse DLL1 from the N-terminus up to and including EGF5) (domain or fragment)
chain: not shown
notes: mouse DLL1, N-terminus up to and including EGF5; also called DLL1 (from the N-terminus through EGF-repeat 5); D1N-E5; source: Expi293F, transiently transfected, purified from the medium (Ni-NTA, Superdex 200)

Second part, the binder before the results:

B3: D4N-E5 (DLL4 from the N-terminus through EGF-repeat 5) as used in the N2 binding experiment (domain or fragment, UniProt Q9NR61 27-400, looked up)
chain: SGVFQLQLQEFINERGVLASGRPCEPGCRTFFRVCLKHFQAVVSPGPCTFGTVSTPVLGTNSFAVRDDSSGGGRNPLQLPFNFTWPGTFSLIIEAWHAPGDDLRPEALPPDALISKIAIQGSLAVGQNWLLDEQTSTLTRLRYSYRVICSDNYYGDNCSRLCKKRNDHFGHYVCQPDGNLSCLPGWTGEYCQQPICLSGCHEQNGYCSKPAECLCRPGWQGRLCNECIPHNGCRHGTCSTPWQCTCDEGWGGLFCDQDLNYCTHHSPCKNGATCSNSGQRSYTCTCRPGYTGVDCELELSECDSNPCRNGGSCKDQEDGYHCLCPPGYYGLHCEHSTLSCADSPCFNGGSCRERNQGANYACECPPNFTGSNCE
notes: DLL4, N-terminus through EGF5; it may be the mouse fragment m2); The sentence names hD1N-E5 as human but prints D4N-E5 without a species prefix; source: Expi293F, transiently transfected, purified from the medium (Ni-NTA, Superdex 200)
Kd (N2(1–15)-Fc): 1.28 µM

B4: hD1N-E5 (human DLL1 from the N-terminus through EGF-repeat 5) (domain or fragment, UniProt O00548 18-402, looked up)
chain: QVWSSGVFELKLQEFVNKKGLLGNRNCCRGGAGPPPCACRTFFRVCLKHYQASVSPEPPCTYGSAVTPVLGVDSFSLPDGGGADSAFSNPIRFPFGFTWPGTFSLIIEALHTDSPDDLATENPERLISRLATQRHLTVGEEWSQDLHSSGRTDLKYSYRFVCDEHYYGEGCSVFCRPRDDAFGHFTCGERGEKVCNPGWKGPYCTEPICLPGCDEQHGFCDKPGECKCRVGWQGRYCDECIRYPGCLHGTCQQPWQCNCQEGWGGLFCNQDLNYCTHHKPCKNGATCTNTGQGSYTCSCRPGYTGATCELGIDECDPSPCKNGGSCTDLENSYSCTCPPGFYGKICELSAMTCADGPCFNGGRCSDSPDGGYSCRCPVGYSGFNC
notes: human DLL1, N-terminus through EGF5; source: Expi293F, transiently transfected, purified from the medium (Ni-NTA, Superdex 200)
Kd (N2(1–15)-Fc): 0.36 µM
